Molecular target: the molecule itself
Assay: SEC + other: dynamic light scattering; analytical SEC: 100 µL of 1 mg/mL FLAG-tagged NLRP3ΔPYD on Superose 6 Increase 10/300, 20 mM HEPES pH 7.5, 200 mM NaCl, 1 mM MgCl2, 2 mM DTT, size by calibration standards; DLS at 10 °C in the same buffer; self-association

B1: NLRP3ΔPYD carrying the double mutation F788E/F813E (NLRP3ΔPYD-F788E/F813E), FLAG-tagged (domain or fragment, human, UniProt Q96P20 126-1036, looked up)
chain: RISICKMKKDYRKKYRKYVRSRFQCIEDRNARLGESVSLNKRYTRLRLIKEHRSQQEREQELLAIGKTKTCESPVSPIKMELLFDPDDEHSEPVHTVVFQGAAGIGKTILARKMMLDWASGTLYQDRFDYLFYIHCREVSLVTQRSLGDLIMSCCPDPNPPIHKIVRKPSRILFLMDGFDELQGAFDEHIGPLCTDWQKAERGDILLSSLIRKKLLPEASLLITTRPVALEKLQHLLDHPRHVEILGFSEAKRKEYFFKYFSDEAQARAAFSLIQENEVLFTMCFIPLVCWIVCTGLKQQMESGKSLAQTSKTTTAVYVFFLSSLLQPRGGSQEHGLCAHLWGLCSLAADGIWNQKILFEESDLRNHGLQKADVSAFLRMNLFQKEVDCEKFYSFIHMTFQEFFAAMYYLLEEEKEGRTNVPGSRLKLPSRDVTVLLENYGKFEKGYLIFVVRFLFGLVNQERTSYLEKKLSCKISQQIRLELLKWIEVKAKAKKLQIQPSQLELFYCLYEMQEEDFVQRAMDYFPKIEINLSTRMDHMVSSFCIENCHRVESLSLGFLHNMPKEEEEEEKEGRHLDMVQCVLPSSSHAACSHGLVNSHLTSSFCRGLFSVLSTSQSLTELDLSDNSLGDPGMRVLCETLQHPGCNIRRLWLGRCGLSHECCEDISLVLSSNQKLVELDLSDNALGDEGIRLLCVGLKHLLCNLKKLWLVSCCLTSACCQDLASVLSTSHSLTRLYVGENALGDSGVAILCEKAKNPQCNLQKLGLVNSGLTSVCCSALSSVLSTNQNLTHLYLRGNTLGDKGIKLLCEGLLHPDCKLQVLELDNCNLTSHCCWDLSTLLTSSQSLRKLSLGNNDLGDLGVMMFCEVLKQQSCLLQNLGLSEMYFNYETKSALETLQEEKPELTVVFEPSW
notes: NLRP3, human, N-terminally truncated, amino acids 126-1036 (lacks the pyrin domain), with F788E and F813E; Made by megaprimer mutagenesis of the NLRP3ΔPYD construct; also called the mutant
**Q.** With B1 as the protein, how does the “stoichiometry N” value read?
**A.** Its value is roughly 3.
